Data reported in patent US7078385B2, “Methods of inhibiting angiogenesis with fragments and homologs of troponin subunit I” (Boston Life Sciences, Inc., priority 1996, dated 2006).

Legend:
[1] = system: capillary EC from bovine adrenal cortex, bFGF-stimulated; test: bFGF-stimulated capillary EC proliferation (Example 8); format: cell-based; details: bFGF as mitogen
Protocol: (§1) Capillary EC, isolated from bovine adrenal cortex (Folkman, et al., 1979, Proc. Natl. Acad. Sci. USA 76, 5217–5221) were obtained from Children's Hospital (Boston, Mass.). […] Cells were maintained in culture in DME (Dulbecco's Modified Eagle's Medium, Gibco Laboratories) with 10% calf serum (Hyclone) (DME/10) supplemented with 3 ng/ml bFGF or Vascular Endothelial Growth Factor (VEGF) in preparation for these assays.
(§2) Briefly, capillary EC (2,000 cells per well) were plated on gelatinized 96-Well culture plates in DMEM supplemented with 5% (v/v) calf serum and incubated for 24 hours. On day 2, cells were treated with bFGF (Scios Nova; 1 ng/ml) and challenged with the test fractions and/or with purified TnI. For experiments in which VEGF was used as the mitogen, 800 cells per well were plated and allowed to incubate for 3 hours before VEGF (Biomedical Technologies Incorporated; 30 ng/ml) and TnI was added. Control wells contained cells alone and cells stimulated with bFGF or VEGF. On day 5, growth medium was removed from the plates; cells were lysed in buffer containing the detergent Triton x-100 and the phosphatase substrate p-nitrophenyl phosphate. […] Color development was determined using a rapid multiwell plate reader (Dynatech MR 5000) (Moses, et al., 1990, Science 2488, 1408–1410; Moses, et al., 1990, J. Cell. Biol. 119, 474–481; Connolly, et al., 1986, Anal. Biochem. 152, 136–140).

[2] = system: capillary EC DNA synthesis; test: Tritiated thymidine incorporation, capillary EC DNA synthesis; format: cell-based, bovine; details: tritiated thymidine assay
Protocol: On day one, 5,000 bovine capillary endothelial cells in DMEM/10% CS/1% GPS are plated onto each well of a 96-well pregelatinized tissue culture plate. On day two, the cell media is changed to DMEM, 2% CS, 1% GPS, 0.5% BSA (complete medium), supplemented with 10 μl of 1 mg/ml “cold” thymidine per 50 ml of medium. On day three, test samples in complete medium are added in duplicate. Additionally, […] (bFGF) is added to each well except for the appropriate controls, to a final concentration of 0.2 ng/well. On day four, 5 μl of 1:13 diluted ^3H-Thymidine stock is added to each well and the plate is incubated for 5–6 hours. Following incubation, the medium is aspirated, and the remainder is rinsed once with PBS, then twice for 5 minutes each with methanol followed by two rinses each for 10 minutes with 5% TCA. The cells are then rinsed with water three times, dried to the plate, and 100 μl of 0.3 N NaOH is added to each well. The contents of the well are then transferred to the scintillation counter vials and 3 mls of Ecolume added to each vial. Samples are then counted on the scintillation counter.

[3] = system: bovine aortic smooth muscle cells (SMC); test: Cell specificity: PDGF-BB-stimulated smooth muscle cell proliferation, electronic cell counting; format: cell-based; details: doses over 5× higher than the IC50 for capillary EC
Protocol: BALB/c mouse 3T3 cells were maintained in DME/10, L-glutamine(292 μg/ml) as previously described (Klagsbrun, et al., 1977, Exp. Cell Res. 105, 99–108). Bovine aortic smooth muscle cells (SMC), isolated by explant from the medial layer of bovine aortas, were obtained from Children's Hospital (Boston, Mass.). These cells were cultured in DME/10 on uncoated tissue culture plastic as previously described (D'Amore and Smith, 1993, Growth Factors 8, 61–75).
To determine whether the proliferation of bovine aortic SMC and Balb c/3T3 cells was inhibited by TnI, the following assays were conducted. SMC were plated into multiwell dishes (2.1 cm^2/well) at a density of 10,000 cells/well. After allowing the cells to attach overnight, fresh media was applied containing either 3 ng/ml PDGF-BB alone or in combination with increasing concentrations of purified TnI. Following incubation for 72 hrs at 37° C. in 10% CO2, the cells were rinsed in PBS, detached by trypsinization and counted electronically.

BALB/c mouse 3T3 cells = test: Cell specificity: tritiated thymidine incorporation in quiescent 3T3 cells; format: cell-based; details: doses over 5× higher than the IC50 for capillary EC
[4] = system: embryonic neovascularization of the chick chorioallantoic membrane; test: Chick chorioallantoic membrane (CAM) assay; format: in vivo; details: 48 h
Protocol: All procedures were carried out in a laminar flow hood under sterile conditions. The eggs were stored in a Favorite Egg Incubator (Leahy) at 37° C. and 65% relative humidity. On day 3 of development, fertilized White Leghorn eggs (SPAFAS) were cracked and the embryos removed from their shells and placed in plastic petri dishes. On day 6, test substances including native rabbit TnI (Greaser and Gergely, 1971, J. Biol. Chem. 246, 4226–4233) and recombinant human TnI and appropriate buffer controls were mixed in methylcellulose, disks and applied to the surfaces of the growing CAMs above the dense subectodermal plexus.

[5] = system: bFGF-induced corneal angiogenesis; test: Mouse corneal pocket assay; format: in vivo, C57BL/6 mice; details: 50 mg/kg subcutaneous every 12 hours, sixth day of treatment
Protocol: Briefly, pellets composed of bFGF (40 ng/ml), sucrose octasulfate and Hydron were implanted into corneal micropockets of six C57BL/6 mice as previously described (U.S. Pat. No. 5,837,680 to Moses et al.). Troponin I (50 mg/kg) was administered systemically every 12 hours by subcutaneous injection. On the sixth day of treatment, corneal angiogenesis was evaluated using slit lamp microscopy and photographed.

[6] = system: B16-BL6 melanoma lung metastases; test: B16-BL6 melanoma lung metastasis model; format: in vivo, C57BL/6 mice
Protocol: Murine melanoma B16-BL6 were cultured in RPMI 1640 (Gibco) supplemented with 10% (v/v) fetal calf serum (Hyclone), L-glutamine and NaHCO3. Cells were washed with EBSS (Gibco) and trypsinized for 3 to 5 mm with 0.25% TRL/0.2% EDTA to which culture buffer was added for washing. This preparation was then centrifuged for 10 mm at 1000 rpm, the cell pellet resuspended in fresh culture media, cell number determined using a coulter counter and cell viability determined with trypan blue (100% viability). The cell suspension was adjusted to […] for implantation. B16-BL6 cells (5×10^5/0.2 ml) were injected into the tail veins of C57BL/6 mice (approximately 6–7 weeks old). One day following tumor cell inoculation, mice were treated with rTnI systemically, twice per week, with a dose of either 1 mg/kg (n=10) or 20 mg/kg (n=10) or vehicle (150 mM NaCl, 20 mM citrate, pH3) over, a 28 day period. On day 30, animals were sacrificed, the number of lung surface metastases counted and the lungs weighed.

[7] = system: capillary EC from bovine adrenal cortex, VEGF-stimulated; details: read-out: IC50, capillary EC proliferation; VEGF as mitogen
Protocol: as §1, §2

B1: rTnI: recombinant human fast-twitch skeletal muscle troponin I expressed in E. coli, about 21 kDa (SEQ ID NO:17) (protein, listed as Homo sapiens)
chain: MGDEEKRNRAITARRQHLKSVMLQIAATELEKEESRREAEKQNYLAEHCPPLHIPGSMSEVQELCKQLHAKIDAAEEEKYDMEVRVQKTSKELEDMNQKLFDLRGKFKRPPLRRVRMSADAMLKALLGSKHKVCMDLRANLKQVKKEDTEKERDLRDVGDWRKNIEEKSGMEGRKKMFESES
IC50 [1]: ~65 nM | IC50 [2]: ~240 nM | Suppression of growth of bovine aortic smooth muscle cells [3]: did not suppress the growth | Suppression of growth of Balb/c 3T3 cells (BALB/c mouse 3T3 cells): did not suppress the growth | Eggs with avascular zone (inhibition of embryonic neovascularization) ([4]; 130 picomoles): 66% | Eggs with avascular zone (inhibition of embryonic neovascularization) ([4]; approximately 380 picomoles): 100% | Inhibition of bFGF-induced corneal angiogenesis (in words) [5]: significantly inhibited | Inhibition of lung metastases ([6]; 1 mg/kg systemically twice weekly, 28 days, day 30): 52% | Inhibition of lung metastases ([6]; 20 mg/kg systemically twice weekly, 28 days, day 30): 64% | Number of lung surface metastases (mean, SEM) ([6]; 20 mg/kg twice weekly, day 30): 25.0+/−7.5 | Toxicity (weight or appetite loss) ([6]; 1 or 20 mg/kg twice weekly, 28 days): no observed toxicity | Lung weights, treated versus control groups ([6]; 1 or 20 mg/kg twice weekly, day 30): comparable | IC50 [7]: ~1.5 nM
